Paper doi:10.1101/2022.11.20.517165

B1: Toc34 (natural protein)
chain: MAQPPRPAEEYDDDVQEDEDELKEGELDDDESHEAASEGGEAAAGDEEAEDDEQDEEDGDEDSQPWAGLNRLPERDDMLDILNELRAEGRKQLTVLLLGKSSVGKSSLINSLLGEAVVRVQAFKLQADTDITTTVVRQVAVGNSEVDGFRLKLIDTCGLEDPEAGDTVNLGALSKIAEDVRGVGIDVVLYCDRLDLYRVDPLDKAIIDAISSTFGRGIWRRTVVALTHANLVQTPPGTDYDSFVNGRVRLIRGAVRGPLFFRPSLPVALVENSETCPVSSESGFRVLPDGEPWLVALVSQLVDMAAARRRPYKYHPRLSSKPSHRFRWLLPVAIAAEVLFYRRFLHPRLDDNQRRVEREEERVWALRGQQRRALGLHRPHRPDKDAAWRLEQMYDDD

What was measured:
[1] = target: Toc90 (Chlamydomonas reinhardtii); assay: cryo-EM structure
[2] = target: Toc75 (Chlamydomonas reinhardtii); assay: cryo-EM structure

Row | Molecule | stoichiometry N [1] | stoichiometry N [2]
1 | Toc75 (natural protein) | 1 | –
2 | B1 | – | 1
